For test [1], the target named is T1, recombinant human OX40L (extracellular domain with FLAG peptide motif and isoleucine zipper motif) (human, UniProt P23510 51-183, biotinylated in the HTRF assays (sites not given)).
T1 sequence (looked up): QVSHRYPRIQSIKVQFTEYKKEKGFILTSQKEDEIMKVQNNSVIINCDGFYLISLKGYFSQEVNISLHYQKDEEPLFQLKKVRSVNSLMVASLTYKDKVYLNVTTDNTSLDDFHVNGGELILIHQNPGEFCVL
Put plainly: cell-based or functional assay.

For test [2], the target named is T1, recombinant human OX40L (extracellular …). Nature of the test: HTRF ligand/receptor neutralisation; competitor OX40RFc-AF647 on biotinylated hOX40L; mean of three experiments, SEM +/-0.17. The procedure:
(§1) Profiling of Fully Human Recombinant Anti-OX40L Antibodies in HTRF Ligand/Receptor Neutralisation Assay In order to determine whether recombinantly expressed fully human purified IgG inhibit human OX40L binding to OX40RFc the following method was carried out. Fully human purified IgG or other inhibitor were tested in order to establish the clone potency as measured by IC$50$ values in the assay. Antibodies recombinantly expressed and purified were titrated by diluting in HTRF assay buffer and 5 μL of this titration transferred to a white 384 well low volume non-binding surface polystyrene plate (Greiner). Biotinylated OX40L was diluted in HTRF assay buffer to a working concentration of 2.4 nM and 5 μL added. OX40RFc directly labelled with AF647 was then diluted to working concentration of 10 nM and 5 μL added. […] Plates were covered, protected from light and incubated at room temperature for 3 hrs prior to reading time resolved fluorescence at 620 nm and 665 nm emission wavelengths using an EnVision plate reader (Perkin Elmer). Data were analysed by calculating delta F as described in Equation 4 and percentage of receptor for each sample according to Equation 5 or in some cases Equation 6. IC$50$ values were determined using GraphPad Prism software by curve fitting using a four-parameter logistic equation (Equation 7) (FIG. 1).

For test [3] the target is unchanged. Put plainly: HTRF ligand/receptor neutralisation; competitor OX40RFc-AF647 on biotinylated hOX40L; mean of three experiments, SEM +/-0.04. How it is done: as §1
Test [4] shares this target. Nature of the test: SPR (ProteOn XPR36), apparent affinity, antibody captured on anti-mouse IgG, hOX40L at 256 nM, 1:1 model, 25 C. The procedure:
SPR analysis was carried out using the ProteOn™ XPR36 Array System (BioRad). Anti-mouse IgG (GE Healthcare BR-1008-38) was immobilised on a GLM biosensor surface using amine coupling, the surface was then blocked using 1 M ethanolamine. Test antibodies were captured on this surface and recombinant hOX40L (human and rhesus) were used at a single concentration of 256 nM, binding sensorgrams were double referenced using a buffer injection (i.e. 0 nM) to remove baseline drift and injection artefacts. Apparent affinities for the OX40L-antibody interaction were determined using the 1:1 model inherent to the ProteOn XPR36 analysis software. The assay was run using HBS-EP (Teknova) as running buffer and carried out at 25° C.

B1: 10A07 (human) (antibody, V domains shown)
VH: EVQLVESGGVLVQPGGSLRLSCAASGFTFSSYIMTWVRQAPGKGLEWVSGISGSGGGTYYADSMKGRFTISRDNSKNTLYLQMNSLRVEDTAVYYCAKDRLGPITLVRGGYYYGMDVWGQGTTVTVSS
VL: DIQMTQSPSSLSASVGDRVTITCRASQSISDYLNWYQQKPGKAPKFLIYAASSLQSGVPSRFSGSGSGTDFTLTVSSLQPEDFATYYCQQSYSTPRTFGQGTRVEIK
notes: also called 10A7; mAb 10A7
B1: the “Primary T-cell Assay IC50 nM (recombinant OX40L induced IL2 release from primary isolated T-cells)” value in test [1] was found to be 0.83 nM. Also, the IC50 in test [2] amounted to 1.2 nM.

B2: 2D10 (human) (antibody, human IgG4 S228P, kappa, V domains shown)
VH: EVQLVESGGGLVQPGGSLRLSCAASGFTFSNYAMNWVRQAPGKGLEWVSTISGSGGATRYADSVKGRFTISRDNSRNTVYLQMNSLRVEDTAVFYCTKDRLIMATVRGPYYYGMDVWGQGTTVTVSS
VL: DIQMTQSPSSLSASVGDRVTITCRASQSISSYLNWYQQKPGKAPNLLIYAASSLQSGVPSRFSGSGSETDFTLTISSLQPEDFATYYCQQSHSVSFTFGPGTKVDIKR
notes: Recombinant fully human IgG4-PE (Ser228Pro, Leu235Glu) with a human kappa light chain; also called 02D10; 2D10 IgG4PE
Regarding B2, the “Primary T-cell Assay IC50 nM (recombinant OX40L induced IL2 release from primary isolated T-cells)” value in test [1] was found to be 0.81 nM. In test [3], the IC50 was determined as 0.75 nM.

B3: 19H01 (hybridoma) (antibody, V domains shown)
VH: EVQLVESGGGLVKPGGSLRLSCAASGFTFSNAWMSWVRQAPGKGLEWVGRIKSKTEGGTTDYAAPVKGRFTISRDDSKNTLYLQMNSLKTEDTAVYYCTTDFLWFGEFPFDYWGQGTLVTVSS
VL: DIQMTQSPSSLSASVGDRVTITCRASQGISNYLAWYQQKPGKIPKLLIYAASTLQSGVPSRFSGSGSGTDFTLTISSLQPEDVATYYCQKYNSAPRTFGQGTKVEIK
notes: Murine/human chimeric antibody purified from hybridoma supernatant (human variable domains, mouse constant regions)
Turning to B3, the Kd in test [4] came to 2.2 nM.

B4: 9H04 (hybridoma) (antibody, V domains shown)
VH: QVQLVESGGGLVKPGGSLRLSCAASRFTLSDYYMTWIRQAPGKGLEWVSYISSSGNTIYYADSVKGRFTISRDNAKNSLYLQMNSLRAEDTAVYYCARDLSGSYWDYYYGMDVWGQGTTVTVSS
VL: AIQLTQSPSSLSTSVGDRVTIACRASQGINNALAWYQQKPGKAPKLLIYDASSLESGVPSRFSGSGSGTDFTLTISSLQPEDFATYYCQQFNSYPRTFGQGTKVEIK
notes: Murine/human chimeric antibody purified from hybridoma supernatant (human variable domains, mouse constant regions); also called 09H04
For B4, the Kd in test [4] worked out at 5.3 nM.
